The record followed here is the nanobody polyreactivity screen of Harvey et al. (2022).

The nature of this data set: yeast display, Sf9 membrane polyspecificity reagent, FACS + sequencing; frameworks hold sequencing errors. Summed up: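 Galactose-induced (36–48 hours) yeast carrying a synthetic nanobody display library were exposed to 10% biotinylated, detergent-solubilized Sf9 membrane reagent at 4 °C for 1 hour. FACS followed streptavidin microbead enrichment, using low and high (top ~1%) gates for expression (anti-HA) and reagent binding (streptavidin). Colony PCR, MiSeq 2 × 250 sequencing and CDR-length filtering followed. Labels for polyreactivity reflect the gate of origin.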
As to “QVHLVESGGGLVQAGGSLRISCAASGSIFKGYAMGWYRQAPGKERELVAAITIDGSTYYADSVKGRFTISRDNAKNTVYLQMNSLKPEDTAVYYCDAVYLWYGSWPLHFAAYDYWGQGTQVTVSS”, the “polyreactivity (PSR sort gate)” value is recorded as “low polyreactivity”.

With “QVQLVESGVGLVQAGGSLRLSCAASGRIFYRNAMGWYRQAPGKEREFVAAITFRSGGTYYADSVKGRFTISRDNAKNTVYLQMNSLKPEDTAVYYCATRYLGASRYGYWGQGTQVTVSS”, the “polyreactivity (PSR sort gate)” value is “high polyreactivity”.

In the case of “QVQLVESGGGLVQAGGSLRLSCAASGSTFLHYAMGWYRQAPGKERELVATITSGDSTSYADSVKGRFTISRDNAKNTVYLQMNSLKPEDTAVYYCTANRVHRSASPYDYWGQGTQVTVSS”, the “polyreactivity (PSR sort gate)” value is given as “low polyreactivity”.

For “QVQLVESGGGLVQAGGSLRLSCAASGSTFQTYAMGWSRQAPGKERELVAAITWRGGSTYYADSVKGRFTISRDNAKNTVYLQMNSLKPDDTAVYYCAAKWNGSHDHRAAYESWGQGTQVTVSS”, the “polyreactivity (PSR sort gate)” value is given as “low polyreactivity”.

In the case of “QVQLVESGGGLVQAGGSLRLSCAASGFIFRTNAMGRYRQAPGKEREFVAAIRWSGGSTYYADSVKGRFTISRDNAKKTVYLQMNSLKPEDTAVYYCAAEIYLSTYFYPHSIYDYWGQGTQVTVSS”, the “polyreactivity (PSR sort gate)” value is “high polyreactivity”.

As to “QDQLVQSGGGLVQAGGSLRLSCAASAITFVIYSMGWYRQAPGKERELVAAIDGSDGSTYYADSVKGRFTISRDTAKNTVYLQMNSLKPEDTAVYYCNADTGGYYVTGSYLYNEYDYWGQGTQVTVSS”, the “polyreactivity (PSR sort gate)” value was “low polyreactivity”.

For the sequence “QVQLVESGGGLVQAGGSLRLSCAASGRIFVYYAMGWYRQAPGKERELVAAIRWTGGSTYYADSVKGRFTISRDNAKNTVYLQMNSLKPEDTAVYYCATVNRYGHFNYWGQGTQVTVSS”, the “polyreactivity (PSR sort gate)” value is recorded as “high polyreactivity”.

As to “QVQLVESGGGLVQAGGSLRLSCAASGRTFRTYAMGWYRQAPGKERELVAITTSGGSTYYADSVKGRFTISRDNAKNTVYLQMNSLKPEDTAVYYGAAQWRSYYDQYGYDYWGQGTQVTVSS”, the “polyreactivity (PSR sort gate)” value is recorded as “low polyreactivity”.

Consider “QVQLVESGGGLVQAGGSLRLSCAASGSIFIVYAMGWYRQAPGKERELVAAISWSGGSTYYADSVKGRFTISRDNAKNTVYLQMNSLKPEDTAVYYCAAKYTLPFRDVKYYSWGQGTQVTVSS”, for which the “polyreactivity (PSR sort gate)” value is given as “high polyreactivity”.

For “QVQLVESGGGLVQAGGSLRLSCAASGSIFGEYAMGWYRQAPGKERELVAAITFSTGSTYYADSVKGRFTISRDNAKNTVYLQMNSLKPEDTAVYYCAAESYTYYWYDYEYWGQGTQVTVSS”, the “polyreactivity (PSR sort gate)” value is “high polyreactivity”.

Turning to “QLQLQESSGGLVQAGGSMRMTCAASGTIFHFHIMGWYRPAPGKEREFVAAISYGTSTYYADSVKGRFTISRDNAKNTVYLQMNSQKPEDTAVYYCAVYDYLEVYCWYWGQGTQVTVSS”, the “polyreactivity (PSR sort gate)” value is “low polyreactivity”.

Take “QVQLVESGGGLVQAGGSLRLSCAASGFTLQQYTMGWYRQAPGKERELVAAISTSGVRTYYADSVKGRFTISRDNAKNTVYLQMNSLKPEDTAVYYCNAKVRKSRFYYWGQGTQVTVSS”: the “polyreactivity (PSR sort gate)” value is listed as “high polyreactivity”.

Consider “QVQLVESGGGLVPAGGSLRLSCAASGSIFTNAMGWYRQAPGKERELVAAIDANAGDTHYADSVKGRFTISRDNAKNTVYLQMNSLKPEDTAVYSCNADVTERLWTGEDDYWGQGTQVTVSS”, for which the “polyreactivity (PSR sort gate)” value is given as “low polyreactivity”.

Take “QVQLVESGGGLVQAGGSLRLSCAASGRTFWYYTMGWYRQAPGKEREFVAAIRGSGTSTYYADSGKARFTISRDNAKNNVYLQMNSLKPEDTAVYYCAAESPVYHLVTYDYWGQGTQVTVSW”: the “polyreactivity (PSR sort gate)” value was “high polyreactivity”.

Turning to “QFQLVESGGGLVQAGGSLRLSCAASGSIFYGYTMGWYRQEPGKERELLAAIRKSGGSTNYADSVKGRFTISRDNAKNTVYLQMNSLKPEDTAVYYCSASYYRGRGYYWGQGTQVTVSS”, the “polyreactivity (PSR sort gate)” value was “high polyreactivity”.

On to “QVQLVESGGGLVQAGGSLRLSCAASGSNFRSYAMGWYIQAPGKERELVAAITWGGNTYYADSVKGRFTISRDNAKNTVYLQMNSLKPEDTAVYYCAAKSYYTRRSKYDYWGQGTQVTVSS”, for which the “polyreactivity (PSR sort gate)” value is given as “high polyreactivity”.

“QVQLVESGGGLVQAGGSLRLSCAASGRTFLYYAMGWYRQAPGKERELVAGITSGGSTNYADSVKGRFTISRDNAKNTVYLQMNSLKPEDTAVYYCAVDQGYSRTADVNYDYWGQGTQVTVSS”: the “polyreactivity (PSR sort gate)” value is “low polyreactivity”.

Take “QVQLVESGGGLVQAGGSLRLSCAASGSIVNYYAMGWYRQAPGKERELVAAITWSGGRTYSADSVKGRFTSSRDNAKNTVYLQMNSLKPEDTAVYYCATAPVRIRDILFSPRMDYWGLGTQVTVSS”: the “polyreactivity (PSR sort gate)” value is recorded as “low polyreactivity”.

Turning to “QVQLVESGGCLVQARGSLRLSCAASGSTFGTYAMGWYRQPPGKERELVAAIRWSGVSTYYADSVKGRFTISRDNAKNTVYLEMNSLKPEDTAVYYCAVALWVRGTYIYEYWGQGSQVTVSS”, the “polyreactivity (PSR sort gate)” value is reported as “high polyreactivity”.

Take “QVHLVESGGGLVQAGGSLRLSCSASGITFLTYTMGWYRQEPGKERELVASIRYSTGSTYYADSVKGRFTISRDNAKNTVYLQMNSLKPEDTAVYYCNDYSSYIKYDYWGQGTQVTVTS”: the “polyreactivity (PSR sort gate)” value is “high polyreactivity”.

For “QVQLVESGVGLVQAGGSLRLSCAASGSIFTYYAMGWYRQAPGKEREFVAGISWSGGRTYYADSVKGRFTISRDNAKNTVYLQMNSLKPEDTAVYYCNRQYRYIPSPCDYWGQGTQVTVSS”, the “polyreactivity (PSR sort gate)” value is given as “low polyreactivity”.

As for “QVQLVESGGGLVQAGGSLRLSCAASGSTFERYAMGWYRPAPGKERELVAAISAIGDSTYYADSVKGRFTISRDNAKNTVYLQMNSLKPEDTAVYYCAARYTRYHIGRGYYYWGQGTQVTVSS”, the “polyreactivity (PSR sort gate)” value is given as “high polyreactivity”.

Consider “QVQLVESGGGLVQAGGSLRLSCADSGSIFWGNAMGWYRQAPGKERELVAAITRGGSTYYADSVKGRFTISRDNAKNTVYLQMNSLTPEDTAVYYWAVLSRRYAAYDYWGLGTQVTVSS”, for which the “polyreactivity (PSR sort gate)” value is on record as “high polyreactivity”.

On to “QVQLVESGGGLVQAGGSLRLSCADSGSIFVYNAMGWYRQAPGKERELVAAITTGGSTNYADSVKGRFTISRDNAKNTVYLQMISLKPEDTAVYYCAVEGYPGRYRDPGDLYYYWGQGTQVTLSS”, for which the “polyreactivity (PSR sort gate)” value is “low polyreactivity”.

As to “QVQLVESGGGLVQAGGSLRLSCAASGFTFASNAMGWYRQAPGKERELVADITNTGSTYYADSVKGRFTISRDNAKNTVYLQMNSLKPEDTAVYYCAARSRDVTDGQRISAPHGYWGQGTQVTVSS”, the “polyreactivity (PSR sort gate)” value was “low polyreactivity”.

For “QVQLVESGGGLVQAGGSLRLSCAASGSIFYVYAMGWYRQAPGKERELVAAISRGGGSTSYADSVKGRFTISRDNAKNTVYLQMNSLKPEDTAVYYCNAYTYYHANHEQGFGYWGQGTQVTVSS”, the “polyreactivity (PSR sort gate)” value is recorded as “low polyreactivity”.

Turning to “QVQLLESGGGIVQEGGSLRLSCAASGRIFSPYAMGWYRQAPGKERELVAAITWSGVSTYYADSVKGRFTLSRDNAKNSVYFQMNSLKPEDTAVYYSAVDPRGHEGVRYNYWVQGTQVTVSS”, the “polyreactivity (PSR sort gate)” value is listed as “low polyreactivity”.

“QFQLVESGGGLVQAGGSLRLSSAASGSIFRSYAMGWYRQAHGKERELVAAISSRSGSTYYADSVKGRFTISRDNAKNTVYLQMNSLKPEETAVYYCAAQHRHSYGYWGQGTQVTVSS”: the “polyreactivity (PSR sort gate)” value is reported as “high polyreactivity”.

Consider “QVQLVESGGGLDQAGGSLRLSCAASGSIFTYYAIGWYRQAPGKERELVADISQRGGSTYYADSVKGRFTISRDNAKNTVYLQMISLKPEDTAVYYCATRARYTWRAFEYWGQGTQVNVSS”, for which the “polyreactivity (PSR sort gate)” value is “low polyreactivity”.

With “QVQLVESGGGLVQAGGSLRLSCAASGIIFYRYAMGWYRQAPGKERELVAAISTRGGSTYYADSVKGRFTISRDNAKYTVYLHMNSLKPEDTAVYYCAAEWLRYLHDYWGQGTQVTVSS”, the “polyreactivity (PSR sort gate)” value is reported as “high polyreactivity”.

On to “QVQLVESGGGLVQAGGSLRLSCASSGFTFVYNAMGWYRHAPGKERELVAAITSGGNTYYADSVKGRFTISRDNAKNTVYLQMNSLIPEDTAVYYCAKRGYGRYYAYDYWGQGTQVTVSS”, for which the “polyreactivity (PSR sort gate)” value is reported as “high polyreactivity”.

“QVQLVESGGGLVQAGGSLRLSCAASGRTLQIYVMGWYRQAPGKERELVASITGRGGSTYYADSVKGRFTISRDTAKNTVYLQMNSLKPEDTAVYYFARRYYRLDYWGQGTQVTVSS”: the “polyreactivity (PSR sort gate)” value is on record as “high polyreactivity”.

Take “QVQLVESGGGLVQAGGSLRLSCAASGSIFGWYAMGWYRQAPGKVRELVATITDRGGRTYYADSVKGRFTISRDNAKNTVYLQMNSLTPEDTAVYDCAADAWPFEAESDSWGQGTQVTVSS”: the “polyreactivity (PSR sort gate)” value was “low polyreactivity”.

Consider “QVPLVESGGGLVQAGGSLRLSCAASGSTFVRYAMGWYRQAPGKERELVAGISRVGNTYYADSVKGRFTISRDNAKNTVYLQMNSLKPEDTAVYYCARSQAVYDGWFAKFGYWGQGTQVTVSS”, for which the “polyreactivity (PSR sort gate)” value is on record as “high polyreactivity”.

Regarding “QVQLVESGGGLVQAGGSLRLSCAASGSISYDYAMGWDRQAPGKERELVASITSRGGSTYADSVKGRFTISRDKAKNTVYLQMNSLKPEDTAVYYCAADAIPNLIFISLPFGLDYWGQGTQVTVSS”, the “polyreactivity (PSR sort gate)” value was “low polyreactivity”.

For “QVQLVESGGGLVQAGGSLRLSCAASGRIFVRNAMGWYRQAPGKERELVAAITTGGRTYYADSVKGRFTISRDNAKNTVYVQMNSVKPEDTAVYYCAATGDRKGYKYIYSDTNDYWGQGTQVTVSS”, the “polyreactivity (PSR sort gate)” value is “low polyreactivity”.

“QVQLVESGGGLVQAGGSLLLSCAASGSTFYKNAMGWYRQAPGKERELVAAISSGGSTYYADSVKGRFTISRDNAKNTVYLQMNSLKPEDTAVYYCAADYYYIVDYWGQGTQVTVSS”: the “polyreactivity (PSR sort gate)” value is “high polyreactivity”.

Regarding “QVQLVESGGGLVQAGGSLRLSCAASGSTFSRNAMGWYRQAPGKERELVAGITTSGGRTYYADSVKGRFTISRDNAKNTVYLQMNSLKPEDTAVYYCANSGYRYFYGRPRFDYWGQGTQVTVSS”, the “polyreactivity (PSR sort gate)” value is on record as “high polyreactivity”.

Turning to “QVQLVESGGGLVQAGGSLRLSCAASGIIFIFYDMGWYRQAPGKERELVATITSGTNTYADSVKGRFTISRDNAKNTVYLQMNSLKPEDTAVYYCNAGAVHKKPARDYWGQGTQVTVSS”, the “polyreactivity (PSR sort gate)” value was “low polyreactivity”.

As for “QVQLVESGGGLVQAGGSLRLSCAASGFIFLYYAMGWYRPAPGKEGELVAAISRSGGRTYYADSVKGRFTISRDNAKNTVYLQMNSLKPEDTAGYYCAARSARTSSFPIFYYWGQGTQVTVSS”, the “polyreactivity (PSR sort gate)” value is “high polyreactivity”.

For “QVQLVESGGGLVQAGGSLRLSCAASGIIFSYYTMGWYRQEPGKEREVVAAISARGGRTYYADSVKGRFTISRDNAKNTVYLQMNSLKPEDTAVYYCAASWSTEYYWGQGTQVTVSS”, the “polyreactivity (PSR sort gate)” value is reported as “high polyreactivity”.
